Test results from PMC5727476.

What was measured:
[1] = biological target: recombinant Ixodes ricinus asparaginyl endopeptidase (IrAe) (Ixodes ricinus)
[2] = biological target: Eudiplozoon nipponicum cathepsin L3 (EnCL3) (Eudiplozoon nipponicum)
[3] = biological target: recombinant mouse cathepsin L (MmCL) (mouse) (UniProt P06797)
[4] = biological target: Eudiplozoon nipponicum cathepsin B (EnCB) (Eudiplozoon nipponicum)

Chain of UniProt P06797 (P06797 18-334): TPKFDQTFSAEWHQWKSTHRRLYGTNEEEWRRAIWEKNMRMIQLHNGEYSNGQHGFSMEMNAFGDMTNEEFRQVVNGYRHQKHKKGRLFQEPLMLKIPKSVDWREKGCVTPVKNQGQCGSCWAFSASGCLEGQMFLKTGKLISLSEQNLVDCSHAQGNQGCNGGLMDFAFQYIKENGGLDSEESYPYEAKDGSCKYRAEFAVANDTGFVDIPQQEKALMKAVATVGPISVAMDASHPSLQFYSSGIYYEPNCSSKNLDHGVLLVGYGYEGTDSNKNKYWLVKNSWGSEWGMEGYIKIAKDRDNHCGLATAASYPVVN

“recombinant Eudiplozoon nipponicum stefin (rEnStef) (natural protein)” gave an IC50 of inhibition of peptidase activity (continuous fluorometric assay, Z-Ala-Ala-Asn-AMC, 25 mM MES pH 6, 5 mM DTT; peptidase 10 nM) [1] of 371 nM, an IC50 of inhibition of peptidase activity (continuous fluorometric assay, Z-Phe-Arg-AMC, 25 mM MES pH 6, 5 mM DTT; peptidase 10 nM) [2] of 46.7 nM and an IC50 of inhibition of peptidase activity (continuous fluorometric assay, Z-Phe-Arg-AMC, 25 mM MES pH 6, 5 mM DTT; peptidase 5 nM) [3] of 133 nM. The IC50 of inhibition of peptidase activity (continuous fluorometric assay, Z-Phe-Arg-AMC, 25 mM MES pH 6, 5 mM DTT; peptidase 10 nM) [4] was 13.7 nM.
